{"source": "patent US20200277374A1", "about": "(Alector, published 2020)", "binders": {"B1": {"name": "anti-Siglec-7 antibody 10B5 (antibody, V domains shown)", "VH": "QVHLQQSGPELVKPGASVKISCKASGYAFTNCWMNWVRQRPGKGLDWIGRIFPGNGHTNYSGKFKDKATLTEDKSSSTAYMQLSSLTSEDSAVYFCARDYSDYYFDYWGQGTTLTVSS", "VL": "DVQMTQTTSSLSASLGDRVTISCRASQDINTYLNWYQQKPDGTVKLLIYYTSRLHSGVPSRFSGSGSGTDYSLTISNLEQEDIATYFCQQGNTLPWTFGGGTKLEIK", "notes": "that light chain holds several Z and differs in its CDRs from S7-10B5.1 / 10B5L1; also called S7-10B5; mAb S7-10B5"}}, "molecular_target": "human Siglec-7 expressed on human cells (primary monocytes, dendritic cells, macrophages, NK cells, … (human, UniProt Q9Y286 19-467))", "sequence (Q9Y286 19-467)": "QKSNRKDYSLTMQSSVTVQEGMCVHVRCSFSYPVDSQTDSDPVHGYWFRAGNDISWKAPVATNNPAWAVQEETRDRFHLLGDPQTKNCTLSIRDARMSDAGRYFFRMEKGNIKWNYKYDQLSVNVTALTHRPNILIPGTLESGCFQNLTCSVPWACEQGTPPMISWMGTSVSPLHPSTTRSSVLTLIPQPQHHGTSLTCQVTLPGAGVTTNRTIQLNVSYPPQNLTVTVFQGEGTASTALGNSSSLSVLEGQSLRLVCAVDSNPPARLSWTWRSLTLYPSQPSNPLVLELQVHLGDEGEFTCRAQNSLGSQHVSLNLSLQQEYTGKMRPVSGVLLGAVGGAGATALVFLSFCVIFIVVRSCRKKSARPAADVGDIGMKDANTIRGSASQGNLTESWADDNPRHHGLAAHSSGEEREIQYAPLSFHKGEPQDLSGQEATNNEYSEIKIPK", "test": "cell-based or functional assay", "data": [{"binder": "B1", "values": [{"measurement": "EC50 of Siglec-7 cell surface downregulation, primary human dendritic cells, donor 362", "result": 0.144, "unit": "nM"}, {"measurement": "EC50 of Siglec-7 cell surface downregulation, primary human dendritic cells, donor 363", "result": 0.35, "unit": "nM"}, {"measurement": "EC50 of Siglec-7 cell surface downregulation, primary human dendritic cells, donor 364", "result": 0.103, "unit": "nM"}, {"measurement": "EC50 of Siglec-7 cell surface downregulation, primary human dendritic cells, donor 365", "result": 0.0713, "unit": "nM"}]}]}
